Experimental data published in patent US20170114141A1 (Hoffmann-La Roche, published 2017).

How the values were obtained:
human 4-1BB on cells [1] = target: T1, human 4-1BB on cells (human, UniProt Q07011 24-255); assay: cell-based or functional assay
[2] = target: T2, huOX40-SNAP fusion on Hek293 EBNA cells (human, UniProt P43489 29-277, FRET donor Terbium on the SNAP tag); assay: TagLite FRET competition against d2-labelled 49B4 IgG, t = 2 h
T2 construct: also called hu OX40 (TagLite); not shown: SNAP tag
T2 sequence: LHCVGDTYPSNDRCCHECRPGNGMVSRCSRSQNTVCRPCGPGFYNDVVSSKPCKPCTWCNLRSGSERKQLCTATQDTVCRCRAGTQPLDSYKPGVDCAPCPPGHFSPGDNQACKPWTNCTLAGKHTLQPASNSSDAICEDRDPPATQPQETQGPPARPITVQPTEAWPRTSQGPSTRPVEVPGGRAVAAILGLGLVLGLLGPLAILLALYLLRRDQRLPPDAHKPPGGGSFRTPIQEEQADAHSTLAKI

human OX40 on cells [3] = target: T3, human OX40 on cells (human, UniProt P43489 29-277); assay: cell-based or functional assay
T3 sequence: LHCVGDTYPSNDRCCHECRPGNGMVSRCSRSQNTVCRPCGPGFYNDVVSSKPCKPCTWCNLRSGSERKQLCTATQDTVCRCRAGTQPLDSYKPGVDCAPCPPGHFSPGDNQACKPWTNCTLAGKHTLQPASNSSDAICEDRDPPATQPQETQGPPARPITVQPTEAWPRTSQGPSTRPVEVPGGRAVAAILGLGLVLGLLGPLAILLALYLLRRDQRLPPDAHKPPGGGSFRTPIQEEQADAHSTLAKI

human OX40 on cells [4] = target: T3, human OX40 on cells; assay: cell-based or functional assay; remark: listed apart in the source
[5] = target: T4, hybrid 4-1BB Fc(kih) Construct 1 (mu4-1BB D1/hu4-1BB D2) (murine domain 1, human domain 2, UniProt P0DOX5 223-449 = IgG part); assay: SPR, IgG captured by anti-Fab, hybrid 4-1BB analyte; 0 = no binding
T4 construct: also called mu4-1BBD1/hu4-1BBD2-Fc(kih)

human 4-1BB on cells [6] = target: T1, human 4-1BB on cells; assay: cell-based or functional assay; remark: listed apart in the source
human 4-1BB on cells [7] = target: T1, human 4-1BB on cells; assay: flow cytometry, activated human CD8 T cells
[8] = target: T5, hu4-1BB D1 Fc(kih) Construct 3 (human, UniProt P0DOX5 223-449 = IgG part); assay: SPR, construct 3 on CM5 chip, IgG analyte; 0 = no binding
T5 construct: also called Human 4-1BB-D1 (construct 3); human 4-1BB Domain 1

[9] = target: T6, hybrid 4-1BB Fc(kih) Construct 2 (hu4-1BB D1/mu4-1BB D2) (human domain 1, murine domain 2, UniProt P0DOX5 223-449 = IgG part); assay: SPR, IgG captured by anti-Fab, hybrid 4-1BB analyte; 0 = no binding
T6 construct: also called hu4-1BBD1/mu4-1BBD2-Fc(kih)

B1: 4-1BB(25G7)/FAP(4B9) 2 + 1 (bispecific antibody, human IgG1, lambda, L234A L235A)
heavy 1: not shown
heavy 2: not shown
light: SSELTQDPAVSVALGQTVRITCQGDSLRSYYASWYQQKPGQAPVLVIYGKNNRPSGIPDRFSGSSSGNTASLTITGAQAEDEADYYCNSLDRRGMWVFGGGTKLTVLGQPKAAPSVTLFPPSSEELQANKATLVCLISDFYPGAVTVAWKADSSPVKAGVETTTPSKQSNNKYAASSYLSLTPEQWKSHRSYSCQVTHEGSTVEKTVAPTECS
EC50 of NFkB activation, HeLa-hu4-1BB-NFkB-luc cells with NIH/3T3-huFAP clone 19 cells (human 4-1BB on cells [1]): 0.1 nM | EC50 of NFkB activation, HeLa-hu4-1BB-NFkB-luc cells with WM-266-4 cells (human 4-1BB on cells [1]): 0.3 nM

B2: 49B4 P329GLALA IgG1 (antibody, V domains shown)
VH: QVQLVQSGAEVKKPGSSVKVSCKASGGTFSSYAISWVRQAPGQGLEWMGGIIPIFGTANYAQKFQGRVTITADKSTSTAYMELSSLRSEDTAVYYCAREYYRGPYDYWGQGTTVTVSS
VL: DIQMTQSPSTLSASVGDRVTITCRASQSISSWLAWYQQKPGKAPKLLIYDASSLESGVPSRFSGSGSGTEFTLTISSLQPDDFATYYCQQYSSQPYTFGQGTKVEIKR
notes: anti-OX40, human IgG1 P329G LALA; the TagLite assay only says (49B4) IgG, one portion labelled with d2; also called clone 49B4; 49B4 IgG1
EC50 [2]: 0.87 nM | EC50 of rescuing suboptimal TCR stimulation, plate-immobilized antibody, pre-activated human CD4 T cells (human OX40 on cells [3]): 0.591 nM | EC50 of NFkB-luciferase activation, HeLa_hOx40_NFkB_luc1 cells with secondary anti-human IgG Fc antibody (human OX40 on cells [4]): 2.42 nM

B3: 20B7 P329GLALA IgG1 (antibody, V domains shown)
VH: QVQLVQSGAEVKKPGSSVKVSCKASGGTFSSYAISWVRQAPGQGLEWMGGIIPIFGTANYAQKFQGRVTITADKSTSTAYMELSSLRSEDTAVYYCARVNYPYSYWGDFDYWGQGTTVTVSS
VL: DIQMTQSPSTLSASVGDRVTITCRASQSISSWLAWYQQKPGKAPKLLIYDASSLESGVPSRFSGSGSGTEFTLTISSLQPDDFATYYCQQYQAFSLTFGQGTKVEIKR
EC50 of rescuing suboptimal TCR stimulation, plate-immobilized antibody, pre-activated human CD4 T cells (human OX40 on cells [3]): 0.09 nM | EC50 of NFkB-luciferase activation, HeLa_hOx40_NFkB_luc1 cells with secondary anti-human IgG Fc antibody (human OX40 on cells [4]): 2.27 nM

B4: 12B3 P329GLALA IgG1 (antibody, V domains shown)
VH: QVQLVQSGAEVKKPGSSVKVSCKASGGTFSSYAISWVRQAPGQGLEWMGGIIPIFGTANYAQKFQGRVTITADKSTSTAYMELSSLRSEDTAVYYCARSEFRFYADFDYWGQGTTVTVSS
VL: not shown
notes: anti-4-1BB, human IgG1 P329G LALA; also called clone 12B3
binding result [5]: no binding (tested: 200 nM) | EC50 of increase of IFNg secretion in activated CD8+ T cells, surface-immobilized antibody with suboptimal anti-CD3 (human 4-1BB on cells [6]): 0.07 nM | EC50 (human 4-1BB on cells [7]): 0.43 nM

B5: 20G2 P329GLALA IgG1 (antibody, V domains shown)
VH: QVQLVQSGAEVKKPGSSVKVSCKASGGTFSSYAISWVRQAPGQGLEWMGGIIPIFGTANYAQKFQGRVTITADKSTSTAYMELSSLRSEDTAVYYCARSYYWESYPFDYWGQGTTVTVSS
VL: DIQMTQSPSTLSASVGDRVTITCRASQSISSWLAWYQQKPGKAPKLLIYDASSLESGVPSRFSGSGSGTEFTLTISSLQPDDFATYYCQQQHSYYTFGQGTKVEIKR
notes: anti-mouse 4-1BB, human IgG1 P329G LALA; also called clone 20G2; anti-mouse 4-1BB clone 20G2 huIgG1 P329G LALA
binding result [8]: no binding (tested: 200 nM) | binding result [9]: no binding (tested: 200 nM)

B6: 9B11 P329GLALA IgG1 (antibody, V domains shown)
VH: QVQLVQSGAEVKKPGSSVKVSCKASGGTFSSYAISWVRQAPGQGLEWMGGIIPIFGTANYAQKFQGRVTITADKSTSTAYMELSSLRSEDTAVYYCARSSGAYPGYFDYWGQGTTVTVSS
VL: not shown
notes: anti-4-1BB, human IgG1 P329G LALA; also called clone 9B11
binding result [5]: no binding (tested: 200 nM) | EC50 of increase of IFNg secretion in activated CD8+ T cells, surface-immobilized antibody with suboptimal anti-CD3 (human 4-1BB on cells [6]): 0.12 nM
